The record followed here is PMC8408477.

Data set [1] addresses T1, GST-RhPIF8 (Rosa hybrida, UniProt A0A8K1NC13 1-452).
T1 sequence: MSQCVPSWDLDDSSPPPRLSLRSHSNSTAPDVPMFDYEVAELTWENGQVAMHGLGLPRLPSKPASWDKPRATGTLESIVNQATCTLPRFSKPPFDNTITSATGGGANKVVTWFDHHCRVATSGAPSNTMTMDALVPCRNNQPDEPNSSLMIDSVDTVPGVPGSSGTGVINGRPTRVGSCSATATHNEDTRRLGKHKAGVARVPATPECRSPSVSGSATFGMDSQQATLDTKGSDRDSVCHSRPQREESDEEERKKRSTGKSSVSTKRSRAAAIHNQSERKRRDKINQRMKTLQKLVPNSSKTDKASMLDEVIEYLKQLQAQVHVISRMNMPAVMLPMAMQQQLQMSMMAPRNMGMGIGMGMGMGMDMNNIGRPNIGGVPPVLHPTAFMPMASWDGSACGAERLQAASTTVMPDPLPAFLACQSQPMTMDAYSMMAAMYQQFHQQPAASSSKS
Briefly: competition.

Data set [2] concerns the target T2, GST-RhBBX28 (Rosa hybrida, UniProt A0A8K1NC92 1-241).
T2 sequence: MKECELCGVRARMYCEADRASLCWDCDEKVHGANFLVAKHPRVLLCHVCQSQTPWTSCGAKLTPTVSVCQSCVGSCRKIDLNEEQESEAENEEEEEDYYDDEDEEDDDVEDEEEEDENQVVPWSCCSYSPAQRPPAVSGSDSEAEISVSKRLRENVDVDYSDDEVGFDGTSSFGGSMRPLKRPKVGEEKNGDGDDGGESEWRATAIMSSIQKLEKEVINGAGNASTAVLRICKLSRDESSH
Briefly: EMSA. (A gel shift assay detects complexes by their altered migration in electrophoresis.)

In data set [3] the target is T2, GST-RhBBX28. Briefly: EMSA. This is another data set of the same source.
The target of data set [4] is T1, GST-RhPIF8. Briefly: EMSA.
Data set [5] addresses T2, GST-RhBBX28. Briefly: competition.

B1: RhBBX28 mProbe (dsDNA)
DNA 1: GCCTAAAAAAAAACCACCATACCACAAAAAACCTGC
DNA 2: GCAGGTTTTTTGTGGTATGGTGGTTTTTTTTTAGGC
In the case of B1, the binding result in data set [1] was “no binding”.

B2: RhSDH1 probe (dsDNA)
DNA 1: GTCAACTCCTCACGTTTCATGAGTCTTCTATAGGAATCAACACGTTACATTCTGCA
DNA 2: TGCAGAATGTAACGTGTTGATTCCTATAGAAGACTCATGAAACGTGAGGAGTTGAC
As to B2, in data set [2], the binding result was “binds”.

B3: RhSDH1 probe2 (dsDNA)
DNA 1: AGGTTTTGCAACTAGAAACGTGTTAGAAGAATAATCACAG
DNA 2: CTGTGATTATTCTTCTAACACGTTTCTAGTTGCAAAACCT
As for B3, the binding result in data set [3] is listed as “no binding”.

B4: RhBBX28 probe (dsDNA)
DNA 1: GCCTAACACATGGCCACCATACCACCACGACCCTGC
DNA 2: GCAGGGTCGTGGTGGTATGGTGGCCATGTGTTAGGC
B4: the binding result in data set [4] was “binds”.

B5: RhSDH1 mProbe (dsDNA)
DNA 1: GTCAACTCCTAAAAAATCATGAGTCTTCTATAGGAATCAAAAAAAAACATTCTGCA
DNA 2: TGCAGAATGTTTTTTTTTGATTCCTATAGAAGACTCATGATTTTTTAGGAGTTGAC
B5: the binding result in data set [5] is listed as “no binding”.
